The target in series [1] is RsmN (Pseudomonas aeruginosa PAO1) (UniProt Q02EI1). Briefly: ITC. (In ITC the heat of successive injections is recorded.)
Series [2] has as its target RsmN R62A (Pseudomonas aeruginosa PAO1) (UniProt Q02EI1). Briefly: ITC. To be noted: ITC: 125 uM RNA titrated into protein, 25 mM potassium phosphate pH 7, 50 mM NaCl, 298 K; SEC: 50 uM protein, 100 uM RNA, same buffer.
Series [3] has as its target RsmN (His6-Thb-RsmN) (Pseudomonas aeruginosa PAO1). Briefly: SEC + native MS; gel filtration analysis and ESI-MS of the purified His-tagged RsmN construct; conditions in the Supplemental Information. For orientation: In gel filtration, larger molecules generally elute earlier.
A further series concerns the target RsmA (UniProt O69078 1-61). Briefly: ITC; 1 hairpin per monomer; ITC: 125 uM RNA titrated into protein, 25 mM potassium phosphate pH 7, 50 mM NaCl, 298 K; SEC: 50 uM protein, 100 uM RNA, same buffer. To be noted: protein: recombinant, tags: N-terminal His6-thrombin site (LVPRGS), chain copies: 2, 6-nt loop AAGGAU, G5-C12 closing pair.

Where two headings read alike, the source gives them in different places. A value given as a limit tells only on which side of the number the result lay.

Regarding CCCCGAAGGAUCGGGG [RsmZ-2 hairpin], the dissociation constant (Kd) (usually the constant that tells how readily two partners part at equilibrium) in series [1] (ITC: 125 uM RNA titrated into protein, 25 mM potassium phosphate pH 7, 50 mM NaCl, 298 K, SEC: 50 uM protein, 100 uM RNA, same buffer) turned out to be 276 nM. The same molecule showed a binding signal (fold lower affinity than wild type) in series [2] greater than 1000. “UAAAAGGAAUA [PA1003/pqsR ribosome binding site]” displayed a Kd in series [1] of 704 nM. Same read-out and setting: the result for GCGCAGGAAGCGC [RsmY-1 hairpin] reads 526 nM.

Take RsmN (His6-Thb-RsmN) (natural protein): in series [3], the stoichiometry N – broadly, the number of molecules, sites or subunits per partner or assembly – is 2. As for CCCCGAAGGAUCGGGG (structured_RNA) [RsmZ-2 hairpin], the equilibrium dissociation constant (Kd) in the series with RsmA stood at 264 ± 43 nM.

The values are drawn from publication PMC3791407, “Structural Rearrangement in an RsmA/CsrA Ortholog of Pseudomonas aeruginosa Creates a Dimeric RNA-Binding Protein, RsmN”.
